This is an account of results in PMC12245079, “FUS Selectively Facilitates circRNAs Packing into Small Extracellular Vesicles within Hypoxia Neuron”.

Holding throughout (experiment): EMSA; 100 nM probe; 10 mM Tris-HCl pH 8.0, 10 mM NaCl, 25 mM KCl, 1 mM MgCl2, 1 mM DTT, 1 mg/mL tRNA; room temperature 30 min; 4% native acrylamide gel, 1x TBE
On the technique in general: A gel shift assay detects complexes by their altered migration in electrophoresis.

One data set deals with FUS polypeptide-1 (UniProt P35637 1-526). Particulars: protein: recombinant; tags: GST fusion (pGEX-4T-1), TEV cleavage described; label: Cy3 (3').
A further data set concerns the target FUS polypeptide-4 (UniProt P35637 280-375). The conditions noted are these: protein: recombinant; tags: GST fusion (pGEX-4T-1), TEV cleavage described; label: Cy3 (3').
The next data set concerns the target FUS polypeptide-2 (UniProt P35637 50-400). The conditions noted are these: protein: commercial; tags: GST fusion (pGEX-4T-1) described; label: Cy3 (3').
Another data set deals with FUS polypeptide-3 (UniProt P35637 1-380). The conditions noted are these: protein: recombinant; tags: GST fusion (pGEX-4T-1), TEV cleavage described; label: Cy3 (3').
Chain of FUS polypeptide-3 (P35637 1-380): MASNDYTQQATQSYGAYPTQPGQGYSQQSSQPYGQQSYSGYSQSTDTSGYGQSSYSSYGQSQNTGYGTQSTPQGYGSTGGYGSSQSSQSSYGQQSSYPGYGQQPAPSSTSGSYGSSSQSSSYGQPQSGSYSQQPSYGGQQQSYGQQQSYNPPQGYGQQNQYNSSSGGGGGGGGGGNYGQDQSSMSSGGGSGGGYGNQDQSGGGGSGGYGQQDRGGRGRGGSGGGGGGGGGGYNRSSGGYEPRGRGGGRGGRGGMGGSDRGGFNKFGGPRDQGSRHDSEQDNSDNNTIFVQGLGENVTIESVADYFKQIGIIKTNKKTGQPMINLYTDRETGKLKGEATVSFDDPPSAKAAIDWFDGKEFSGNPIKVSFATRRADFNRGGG

Chain of FUS polypeptide-1 (P35637 whole entry, the tested form may be a part): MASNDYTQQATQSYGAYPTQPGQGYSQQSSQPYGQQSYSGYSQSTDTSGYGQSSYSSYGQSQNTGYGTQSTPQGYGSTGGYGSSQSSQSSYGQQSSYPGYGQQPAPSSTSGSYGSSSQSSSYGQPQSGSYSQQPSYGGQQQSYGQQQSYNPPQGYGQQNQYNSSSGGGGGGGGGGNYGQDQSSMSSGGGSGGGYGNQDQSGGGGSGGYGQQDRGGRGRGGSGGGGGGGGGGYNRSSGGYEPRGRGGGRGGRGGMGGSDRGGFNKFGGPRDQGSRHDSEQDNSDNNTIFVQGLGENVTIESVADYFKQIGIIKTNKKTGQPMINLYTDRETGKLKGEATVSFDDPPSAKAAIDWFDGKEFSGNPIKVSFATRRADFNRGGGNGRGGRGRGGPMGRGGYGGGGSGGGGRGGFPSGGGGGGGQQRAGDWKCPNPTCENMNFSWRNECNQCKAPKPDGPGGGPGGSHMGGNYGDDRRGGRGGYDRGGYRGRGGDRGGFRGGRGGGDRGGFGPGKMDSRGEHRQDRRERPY
Chain of FUS polypeptide-2 (P35637 50-400): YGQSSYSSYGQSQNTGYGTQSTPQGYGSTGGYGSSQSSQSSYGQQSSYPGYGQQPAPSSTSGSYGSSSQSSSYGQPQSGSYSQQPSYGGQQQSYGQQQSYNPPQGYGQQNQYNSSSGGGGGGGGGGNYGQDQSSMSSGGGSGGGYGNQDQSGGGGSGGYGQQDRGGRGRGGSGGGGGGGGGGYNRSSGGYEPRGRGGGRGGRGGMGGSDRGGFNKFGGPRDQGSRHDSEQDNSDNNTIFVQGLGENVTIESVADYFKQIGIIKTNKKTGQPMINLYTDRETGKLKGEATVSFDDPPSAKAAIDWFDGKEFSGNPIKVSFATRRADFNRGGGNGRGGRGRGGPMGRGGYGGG
Chain of FUS polypeptide-4 (P35637 280-375): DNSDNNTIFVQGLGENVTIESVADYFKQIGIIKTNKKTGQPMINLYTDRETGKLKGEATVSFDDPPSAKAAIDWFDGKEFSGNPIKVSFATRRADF

On to UUGUAUUUUGAGCUAGUUUGGUGAC (ssRNA) [GGUG oligo], for which the binding result is recorded as “binds” with FUS polypeptide-1, “no binding” with FUS polypeptide-4, “binds” with FUS polypeptide-2 and “binds” with FUS polypeptide-3.
